Data on five molecules can be found in article PMC6572841, “Structural basis for the inhibition of translation through eIF2α phosphorylation” (Nature Communications, 2019).

The chains are these.
B1: eIF2Bγ (natural protein, Saccharomyces cerevisiae)
chain: MSIQAFVFCGKGSNLAPFTQPDFPFQTQNKDSTAATSGDKLNELVNSALDSTVINEFMQHSTRLPKALLPIGNRPMIEYVLDWCDQADFKEISVVAPVDEIELIESGLTSFLSLRKQQFELIYKALSNSNHSHHLQDPKKINFIPSKANSTGESLQKELLPRINGDFVILPCDFVTDIPPQVLVDQFRNRDDNNLAMTIYYKNSLDSSIDKKQQQKQKQQQFFTVYSENEDSERQPILLDVYSQRDVTKTKYLQIRSHLLWNYPNLTVSTKLLNSFIYFCSFELCQLLKLGPQSMSRQASFKDPFTGNQQQQNPPTTDDDEDRNHDDDDDYKPSATSIQPTYFKKKNDLILDPINCNKSLSKVFRDLSRRSWQHSKPREPIGIFILPNETLFIRANNLNAYMDANRFVLKIKSQTMFTKNIQIQSAAIGADAIVDPKCQISAHSNVKMSVLGTQANIGSRCRVAGSLLFPGVHLGDEVILENCIIGPMAKIGSKCKLSNCYIEGHYVVEPKNNFKGETLANVYLDEDEEDELIYDDSVIAGESEIAEETDSDDRSDEDSDDSEYTDEYEYEDDGLFER
notes: eIF2Bγ, S. cerevisiae; Subunit of m2 as it stood in the eIF2B-eIF2(αP) complex; also called eIF2B γ subunit; source: over-expressed in S. cerevisiae strain GP4109, purified as part of Flag-tagged eIF2B
B2: eIF2β (natural protein, Saccharomyces cerevisiae, UniProt P09064 1-285, looked up)
chain: MSSDLAAELGFDPALKKKKKTKKVIPDDFDAAVNGKENGSGDDLFAGLKKKKKKSKSVSADAEAEKEPTDDIAEALGELSLKKKKKKTKDSSVDAFEKELAKAGLDNVDAESKEGTPSANSSIQQEVGLPYSELLSRFFNILRTNNPELAGDRSGPKFRIPPPVCLRDGKKTIFSNIQDIAEKLHRSPEHLIQYLFAELGTSGSVDGQKRLVIKGKFQSKQMENVLRRYILEYVTCKTCKSINTELKREQSNRLFFMVCKSCGSTRSVSSIKTGFQATVGKRRRM
notes: eIF2β, S. cerevisiae; Subunit of m1 as it stood in the eIF2B-eIF2(αP) complex; also called eIF2 β subunit; source: purified from S. cerevisiae strain GP3511 as part of eIF2
B3: eIF2γ (natural protein, Saccharomyces cerevisiae, UniProt P32481 1-527, looked up)
chain: MSDLQDQEPSIIINGNLEPVGEPDIVEETEVVAQETQETQDADKPKKKVAFTGLEEDGETEEEKRKREFEEGGGLPEQPLNPDFSKLNPLSAEIINRQATINIGTIGHVAHGKSTVVRAISGVQTVRFKDELERNITIKLGYANAKIYKCQEPTCPEPDCYRSFKSDKEISPKCQRPGCPGRYKLVRHVSFVDCPGHDILMSTMLSGAAVMDAALLLIAGNESCPQPQTSEHLAAIEIMKLKHVIILQNKVDLMREESALEHQKSILKFIRGTIADGAPIVPISAQLKYNIDAVNEFIVKTIPVPPRDFMISPRLIVIRSFDVNKPGAEIEDLKGGVAGGSILNGVFKLGDEIEIRPGIVTKDDKGKIQCKPIFSNIVSLFAEQNDLKFAVPGGLIGVGTKVDPTLCRADRLVGQVVGAKGHLPNIYTDIEINYFLLRRLLGVKTDGQKQAKVRKLEPNEVLMVNIGSTATGARVVAVKADMARLQLTSPACTEINEKIALSRRIEKHWRLIGWATIKKGTTLEPIA
notes: eIF2γ, S. cerevisiae; Subunit of m1 as it stood in the eIF2B-eIF2(αP) complex; also called eIF2 γ subunit; source: purified from S. cerevisiae strain GP3511 as part of eIF2
B4: eIF2α phosphorylated at Ser51 (natural protein, Saccharomyces cerevisiae, UniProt P20459 1-304, looked up)
chain: MSTSHCRFYENKYPEIDDIVMVNVQQIAEMGAYVKLLEYDNIEGMILLSELSRRRIRSIQKLIRVGKNDVAVVLRVDKEKGYIDLSKRRVSSEDIIKCEEKYQKSKTVHSILRYCAEKFQIPLEELYKTIAWPLSRKFGHAYEAFKLSIIDETVWEGIEPPSKDVLDELKNYISKRLTPQAVKIRADVEVSCFSYEGIDAIKDALKSAEDMSTEQMQVKVKLVAAPLYVLTTQALDKQKGIEQLESAIEKITEVITKYGGVCNITMPPKAVTATEDAELQALLESKELDNRSDSEDDEDESDDE
modifications: phosphoserine at 51 (52 sequence numbering); measured by mass spectrometry to be 89.4%
notes: eIF2α, S. cerevisiae; Subunit of m1 as it stood in the eIF2B-eIF2(αP) complex; also called eIF2(αP) α subunit; source: purified from S. cerevisiae strain GP3511 as part of eIF2; phosphorylated in vitro by human PKR (Invitrogen)
B5: eIF2Bα (natural protein, Saccharomyces cerevisiae)
chain: MSEFNITETYLRFLEEDTEMTMPIAAIEALVTLLRIKTPETAAEMINTIKSSTEELIKSIPNSVSLRAGCDIFMRFVLRNLHLYGDWENCKQHLIENGQLFVSRAKKSRNKIAEIGVDFIADDDIILVHGYSRAVFSLLNHAANKFIRFRCVVTESRPSKQGNQLYTLLEQKGIPVTLIVDSAVGAVIDKVDKVFVGAEGVAESGGIINLVGTYSVGVLAHNARKPFYVVTESHKFVRMFPLSSDDLPMAGPPLDFTRRTDDLEDALRGPTIDYTAQEYITALITDLGVLTPSAVSEELIKMWYD
notes: eIF2Bα, S. cerevisiae; Subunit of m2 as it stood in the eIF2B-eIF2(αP) complex; also called eIF2B α subunit; source: over-expressed in S. cerevisiae strain GP4109, purified as part of Flag-tagged eIF2B

Test in all cases: cryo-EM structure; eIF2(αP) with 2 mM GDP added to Flag-tagged eIF2B immobilised on Anti-Flag M2 gel, eluted with 3XFlag-peptide; 20 mM Hepes (pH 7.5), 100 mM KCl, 5 mM MgCl2, 5 mM β-ME; diluted to ~200 nM with 0.1% glutaraldehyde; six maps, 4.2 to 10.4 Å
What all share (conditions): both partners purified

The target of one test is T1, eIF2Bε (Saccharomyces cerevisiae, UniProt P32501 1-712).
T1 construct: eIF2Bε, S. cerevisiae; Subunit of m2 as it stood in the eIF2B-eIF2(αP) complex; the ε-cat HEAT domain was not included in any model; also called eIF2B ε subunit; source: over-expressed in S. cerevisiae strain GP4109, purified as part of Flag-tagged eIF2B
T1 sequence: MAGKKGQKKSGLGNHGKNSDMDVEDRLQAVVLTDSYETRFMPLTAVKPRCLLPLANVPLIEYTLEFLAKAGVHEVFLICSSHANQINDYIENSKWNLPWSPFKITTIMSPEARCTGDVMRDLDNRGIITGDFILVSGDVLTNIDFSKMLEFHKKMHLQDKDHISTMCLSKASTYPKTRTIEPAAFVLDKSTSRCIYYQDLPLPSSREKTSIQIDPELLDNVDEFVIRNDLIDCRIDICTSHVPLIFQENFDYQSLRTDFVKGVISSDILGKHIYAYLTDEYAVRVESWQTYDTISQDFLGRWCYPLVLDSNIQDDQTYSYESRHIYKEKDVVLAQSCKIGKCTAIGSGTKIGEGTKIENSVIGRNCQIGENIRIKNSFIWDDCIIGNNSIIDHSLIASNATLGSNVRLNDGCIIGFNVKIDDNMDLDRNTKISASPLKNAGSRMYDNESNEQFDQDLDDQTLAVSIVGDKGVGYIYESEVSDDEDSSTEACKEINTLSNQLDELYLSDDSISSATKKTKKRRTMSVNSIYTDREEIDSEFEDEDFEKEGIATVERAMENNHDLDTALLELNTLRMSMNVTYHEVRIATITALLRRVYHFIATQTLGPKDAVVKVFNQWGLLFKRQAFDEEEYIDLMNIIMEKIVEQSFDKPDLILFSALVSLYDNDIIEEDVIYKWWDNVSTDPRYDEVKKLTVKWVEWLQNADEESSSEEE

In the test “eIF2Bγ” the target is B1.
For the next test, the target named is T2, eIF2Bβ (Saccharomyces cerevisiae, UniProt P32502 1-381).
T2 construct: eIF2Bβ, S. cerevisiae; Subunit of m2 as it stood in the eIF2B-eIF2(αP) complex; also called eIF2B β subunit; source: over-expressed in S. cerevisiae strain GP4109, purified as part of Flag-tagged eIF2B
T2 sequence: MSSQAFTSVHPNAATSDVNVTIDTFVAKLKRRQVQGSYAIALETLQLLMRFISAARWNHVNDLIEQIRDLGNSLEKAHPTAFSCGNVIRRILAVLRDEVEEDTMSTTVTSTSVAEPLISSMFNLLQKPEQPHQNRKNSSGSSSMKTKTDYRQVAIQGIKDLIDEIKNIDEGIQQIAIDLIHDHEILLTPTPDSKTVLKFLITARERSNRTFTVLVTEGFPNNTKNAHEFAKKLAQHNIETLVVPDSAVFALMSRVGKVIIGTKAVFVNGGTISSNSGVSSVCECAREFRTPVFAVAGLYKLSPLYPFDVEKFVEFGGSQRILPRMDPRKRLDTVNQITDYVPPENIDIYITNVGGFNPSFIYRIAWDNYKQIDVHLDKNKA

A further test concerns the target T3, eIF2Bδ (Saccharomyces cerevisiae, UniProt P12754 1-651).
T3 construct: eIF2Bδ, S. cerevisiae; Subunit of m2 as it stood in the eIF2B-eIF2(αP) complex; also called eIF2B δ subunit; source: over-expressed in S. cerevisiae strain GP4109, purified as part of Flag-tagged eIF2B
T3 sequence: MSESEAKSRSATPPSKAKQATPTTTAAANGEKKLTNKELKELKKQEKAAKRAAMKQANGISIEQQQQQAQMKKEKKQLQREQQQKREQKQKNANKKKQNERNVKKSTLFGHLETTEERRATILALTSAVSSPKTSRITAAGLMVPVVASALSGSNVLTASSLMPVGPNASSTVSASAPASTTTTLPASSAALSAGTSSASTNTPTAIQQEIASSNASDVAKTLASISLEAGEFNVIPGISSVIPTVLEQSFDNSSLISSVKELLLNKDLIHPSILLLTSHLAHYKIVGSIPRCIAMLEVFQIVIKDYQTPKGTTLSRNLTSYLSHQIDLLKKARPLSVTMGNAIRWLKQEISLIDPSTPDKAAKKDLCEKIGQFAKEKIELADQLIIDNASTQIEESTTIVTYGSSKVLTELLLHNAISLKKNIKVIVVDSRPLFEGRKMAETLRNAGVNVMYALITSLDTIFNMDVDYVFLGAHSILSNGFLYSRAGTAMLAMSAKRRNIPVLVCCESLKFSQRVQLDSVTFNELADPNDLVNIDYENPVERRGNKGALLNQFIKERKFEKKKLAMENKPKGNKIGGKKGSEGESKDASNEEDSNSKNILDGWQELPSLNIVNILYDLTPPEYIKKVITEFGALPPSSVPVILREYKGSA

In the test “eIF2Bα” the target is B5.

In the case of B1, the binding result with eIF2Bε was “binds”. Take B2: the binding result with eIF2Bγ and in the test with eIF2Bε was “binds” throughout. In the case of B3, in the test with eIF2Bγ, the binding result was “binds”. Regarding B4, the binding result in the test with eIF2Bβ, in the test with eIF2Bδ and with eIF2Bα was “binds” throughout. For the molecule B5, the binding result with eIF2Bβ is listed as “binds”.
